The values that follow come from patent US20160031955A1 (INSERM INSTITUT NATIONAL DE LA SANT ET DE LA RECHERCHE M …, published 2016).

For the assay, the target named is T1, endogenous AIF (apoptosis inducing factor) contained in human cell lysates (human, UniProt O95831 55-613, limits assumed).
T1 construct: Endogenous protein in cell lysate; also called AIF contained in the lysate of U2OS cells
The experiment in a line: co-immunoprecipitation from human cancer cell lysates.

T1 sequence (O95831 55-613 limits assumed): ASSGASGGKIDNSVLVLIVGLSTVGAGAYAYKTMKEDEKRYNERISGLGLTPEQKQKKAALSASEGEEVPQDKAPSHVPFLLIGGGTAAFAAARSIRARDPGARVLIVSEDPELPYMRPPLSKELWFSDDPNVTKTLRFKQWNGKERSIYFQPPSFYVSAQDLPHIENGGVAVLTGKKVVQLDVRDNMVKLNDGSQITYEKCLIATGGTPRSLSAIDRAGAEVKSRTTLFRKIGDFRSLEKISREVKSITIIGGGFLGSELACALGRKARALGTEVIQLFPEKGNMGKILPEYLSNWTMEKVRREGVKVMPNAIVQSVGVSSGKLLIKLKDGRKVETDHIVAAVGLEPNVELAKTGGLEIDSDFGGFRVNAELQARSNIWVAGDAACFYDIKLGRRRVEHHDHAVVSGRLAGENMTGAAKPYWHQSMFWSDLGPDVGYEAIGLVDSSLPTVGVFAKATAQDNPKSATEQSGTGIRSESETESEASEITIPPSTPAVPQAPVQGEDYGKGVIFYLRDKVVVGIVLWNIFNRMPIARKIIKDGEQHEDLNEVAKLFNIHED

B1: CHCHD3 (other, human, UniProt Q9NX63 2-227, looked up)
chain: GGTTSTRRVTFEADENENITVVKGIRLSENVIDRMKESSPSGSKSQRYSGAYGASVSDEELKRRVAEELALEQAKKESEDQKRLKQAKELDRERAAANEQLTRAILRERICSEEERAKAKHLARQLEEKDRVLKKQDAFYKEQLARLEERSSEFYRVTTEQYQKAAEEVEAKFKRYESHPVCADLQAKILQCYRENTHQTLKCSALATQYMHCVNHAKQSMLEKGG
notes: also called a MIA40 family member
As for B1, the binding result is “no binding”.
